Reference: US8003609B2, “Method for ameliorating pain by modification of NMDA receptors through inhibition of Src” (The Hospital for Sick Children, priority 2004, dated 2011)

Key:
[1] = target: T1, interaction between Src and ND2 (Rattus norvegicus, UniProt P11662); assay: co-immunoprecipitation of ND2 by anti-Src from PSD proteins; assay type: binding; details: PSD proteins incubated with peptide
T1 construct: from tissue; host or cells: rat brain post-synaptic density fraction
T1 sequence (P11662 1-346): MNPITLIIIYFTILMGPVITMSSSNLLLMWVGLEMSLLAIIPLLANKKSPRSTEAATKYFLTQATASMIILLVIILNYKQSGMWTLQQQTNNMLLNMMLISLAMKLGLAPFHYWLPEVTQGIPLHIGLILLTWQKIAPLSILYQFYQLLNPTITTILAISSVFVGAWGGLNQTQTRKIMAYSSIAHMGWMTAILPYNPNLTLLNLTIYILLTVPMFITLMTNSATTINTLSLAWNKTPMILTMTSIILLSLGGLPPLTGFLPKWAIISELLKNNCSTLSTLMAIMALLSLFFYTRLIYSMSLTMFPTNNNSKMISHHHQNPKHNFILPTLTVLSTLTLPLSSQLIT
Method: (§1) Detailed protocols for in vitro binding assays, pull down assays, immunoblotting, and co-immunoprecipitation techniques can be found in Pelkey et al. (Neuron 34:127-138 2002).
(§2) Post-synaptic density proteins (Kennedy et al. Proceedings of the National Academy of Science USA 80:7357-7361 1983) were prepared from rat brain as described in detail (Pelkey et al. Neuron 34:127-138 2002). Cellular fractionation of rat brain tissue into nuclear, heavy mitochondrial, light mitochondrial, microsomal, and cytosolic fractions was performed by differential centrifugation of tissue homogenate in 0.25 M sucrose/10 mM HEPES-NaOH, 1 mM EDTA, pH 7.4 with 2 μg each of aprotinin, pepstatin A, and leupeptin (Sigma, St. Louis, Mo.) at 4° C. Nuclei were pelleted by centrifugation at 1 000 g for 10 minutes, the supernatant was removed and spun at 3 000 g for 10 minutes to obtain a heavy mitochondrial pellet. The supernatant was removed and spun at 16 000 g for 15 minutes to obtain a light mitochondrial pellet. The supernatant was removed and spun at 100 000 g for 1 hour to obtain a microsomal pellet and the cytosolic fraction. All pellets were then resuspended in RIPA buffer (50 mM Tris pH 7.6, 150 mM NaCl, 1 mM EDTA, 1% NP-40, 2.5 mg/ml NaDOC, 1 mM Na3VO4 1 mM PMSF, and 2 μg/ml each of protease inhibitors). The light mitochondrial fraction was used in subsequent experiments. […]

NMDAR = assay: mEPSC whole cell recordings in cultured hippocampal neurons, NMDAR component; assay type: cell-based, rat
Method: (§3) Fetal rat hippocampal neurons were prepared, cultured, and used for electrophysiological recordings 12-17 days after plating. Methods for whole cell recordings are described in Pelkey et al. (Neuron 34:127-138 2002).
(§4) In contrast, in control experiments administering EPQ(pY)EEIPIA (SEQ ID NO:5) increased the NMDAR component of mEPSCs by 172±28% and application of Src40-58 decreased the NMDAR component to 56±4% (FIGS. 5D-F). […] Composite traces are shown in black, the NMDAR component in dark grey, and the AMPAR component in light grey. Scale bars are 50 ms/10 pA. […] NMDA component data were calculated as Q20′/Q2′, and AMPA component data were calculated as A20′/A2′. […] An * indicates a significant difference, Student's t-test, p<0.05. Taking our results together, it is concluded that Src-dependent regulation of the activity of NMDARs depends on expression of ND2 through its anchoring of Src to the NMDAR complex.

ND2.2-GST = target: T2, ND2.2-GST (Homo sapiens, UniProt P03891); assay: dot blot of biotinylated Src peptides on ND2.2-GST; assay type: binding; details: biotinylated peptide
T2 construct: amino acids 189-238 (ND2.2-GST); made in house; host or cells: bacteria
T2 sequence (P03891 189-238): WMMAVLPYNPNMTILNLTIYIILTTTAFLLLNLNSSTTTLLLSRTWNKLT
Method: Src, Fyn, and ND2 recombinant proteins were prepared. The cDNAs encoding the SH3 and SH2 domains of mouse n-Src and Fyn were PCR subcloned, ligated in frame into pGEX4T-1 (Amersham Pharmacia Biotech, Baie d'Urfé, Québec), and sequenced. These plasmids, as well as plasmids encoding the unique domains of Src and Fyn in pGEX2T'6, were transformed into BL21 bacteria, and GST fusion proteins were purified by glutathione affinity chromatography. To create the ND2.1, ND2.2, and ND2.3 GST fusion proteins, cDNAs encoding amino acids 239-321 (ND2.1-GST; SEQ ID NO:7), amino acids 189-238 (ND2.2-GST; SEQ ID NO:11), and amino acids 1-188 (ND2.3-GST; SEQ ID NO:13) of human ND2 were PCR subcloned and ligated into pGEX4T-1 (the nucleotide sequence encoding ND2 is SEQ ID NO:8 and the amino acid sequence is SEQ ID NO:9; the nucleotide sequences encoding ND2.1; ND2.2 and ND2.3 are SEQ ID NOS:6, 10 and 12, respectively). Using PCR-based single nucleotide mutagenesis, all cDNAs encoding ND2 fusion proteins were corrected for differences between mitochondrial and nuclear codons to prevent premature translation termination and protein truncation. […]
Src40-58 and scrambled Src peptides were biotinylated by incubating with Sulfo-NHS-Biotin (Pierce Chemical Co., Rockford, Ill.) for 30 minutes at room temperature (SEQ ID NO:4, Src protein). […] Bound probe was then detected on film using an ECL kit.

AMPA receptor = assay: mEPSC whole cell recordings in cultured hippocampal neurons, AMPA receptor component; assay type: cell-based, rat; details: under the recording conditions used
Method: as §3, §4

[2] = target: T3, ND2 association with NMDAR complexes (Rattus norvegicus, UniProt P11662); assay: co-immunoprecipitation of ND2 with NMDARs from PSD proteins; assay type: binding
T3 construct: from tissue; host or cells: rat brain post-synaptic density fraction
Method: as §1, §2

Src40-58: peptide comprising amino acid residues 40-58 of SEQ ID NO:4 (Src) (PASADGHRGPSAAFAPAAA; listed as Homo sapiens)
co-immunoprecipitation of ND2 by anti-Src [1]: prevented | immunoprecipitation of Src from PSDs [1]: did not affect | NMDAR component of mEPSCs, decreased to (NMDAR; control experiments, cultured hippocampal neurons): 56±4% | NMDAR component of the mEPSCs (NMDAR; neurons treated with chloramphenicol for 48 hours): not affected | binding to ND2.2-GST (ND2.2-GST): Neither Src40-58 nor scrambled Src40-58 bound | AMPA receptor component of the mEPSCs (AMPA receptor): neither of these reagents affected | co-immunoprecipitation of ND2 with NMDARs [2]: not affected
